Measurements taken from IntAct's records for PubMed 11932251.

B1: Regulator of chromosome condensation (Homo sapiens), P18754 (parent)
chain: MSPKRIAKRRSPPADAIPKSKKVKVSHRSHSTEPGLVLTLGQGDVGQLGLGENVMERKKPALVSIPEDVVQAEAGGMHTVCLSKSGQVYSFGCNDEGALGRDTSVEGSEMVPGKVELQEKVVQVSAGDSHTAALTDDGRVFLWGSFRDNNGVIGLLEPMKKSMVPVQVQLDVPVVKVASGNDHLVMLTADGDLYTLGCGEQGQLGRVPELFANRGGRQGLERLLVPKCVMLKSRGSRGHVRFQDAFCGAYFTFAISHEGHVYGFGLSNYHQLGTPGTESCFIPQNLTSFKNSTKSWVGFSGGQHHTVCMDSEGKAYSLGRAEYGRLGLGEGAEEKSIPTLISRLPAVSSVACGASVGYAVTKDGRVFAWGMGTNYQLGTGQDEDAWSPVEMMGKQLENRVVLSVSSGGQHTVLLVKDKEQS
partner: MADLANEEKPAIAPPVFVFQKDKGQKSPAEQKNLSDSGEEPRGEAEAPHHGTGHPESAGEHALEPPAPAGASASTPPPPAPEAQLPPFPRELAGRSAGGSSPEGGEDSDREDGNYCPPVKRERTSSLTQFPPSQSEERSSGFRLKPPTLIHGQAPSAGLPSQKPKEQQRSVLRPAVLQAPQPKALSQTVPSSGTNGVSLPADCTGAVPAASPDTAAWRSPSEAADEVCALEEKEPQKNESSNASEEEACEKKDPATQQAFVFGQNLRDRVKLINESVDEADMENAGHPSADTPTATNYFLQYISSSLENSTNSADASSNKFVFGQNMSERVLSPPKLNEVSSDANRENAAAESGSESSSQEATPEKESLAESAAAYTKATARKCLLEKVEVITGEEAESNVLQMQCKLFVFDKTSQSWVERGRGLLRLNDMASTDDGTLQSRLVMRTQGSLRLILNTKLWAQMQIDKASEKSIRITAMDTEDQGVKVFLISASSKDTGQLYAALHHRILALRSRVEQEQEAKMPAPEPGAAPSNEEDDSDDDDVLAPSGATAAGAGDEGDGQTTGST

Variants of: B1
Details: with ranb3_human RANBP3, Q9H6Z4

effect of a mutation on the interaction | Variant
disrupting interaction | MSPKRIAKRRSPPADAIPKSKKVKVSHRSHSTEPGLVLTLGQGDVGQLGLGENVMERKKPALVSIPEDVVQAEAGGMHTVCLSKSGQVYSFGCNDEGALGRDTSVEGSEMVPGKVELQEKVVQVSAGDSHTAALTDDGRVFLWGSFRDNNGVIGLLEPMKKSMVPVQVQLDVPVVKVASGNAHLVMLTADGDLYTLGCGEQGQLGRVPELFANRGGRQGLERLLVPKCVMLKSRGSRGHVRFQDAFCGAYFTFAISHEGHVYGFGLSNYHQLGTPGTESCFIPQNLTSFKNSTKSWVGFSGGQHHTVCMDSEGKAYSLGRAEYGRLGLGEGAEEKSIPTLISRLPAVSSVACGASVGYAVTKDGRVFAWGMGTNYQLGTGQDEDAWSPVEMMGKQLENRVVLSVSSGGQHTVLLVKDKEQS [D182A]
